# From the RNAGym collection of RNA variant scans (doi:10.7554/elife.80360)
# B1: HDV Ribozyme (parent)
# chain: GGCCGGCAUGGUCCCAGCCUCCUCGCUGGCGCCGGCUGGGCAACAUUCCGAGGGGACCGUCCCCUCGGUAAUGGCGAAUGGGACCCA
# Variants of: B1
# Assay: self-cleavage, relative activity (ratio to wild type); higher = more cleavage; co-transcriptional
row,Variant,self-cleavage
1,GGCCGGCAUGGUCCCAGCCUCCUCGCUGGCGCCGGCUAGGCAACAUUCCGAGGGGACCGUCCCCUCGGUAAUGGCGAAUGGGACGCA [G38A C85G],0.157
2,GGCCGGUAUGGUCCCAGCCUCCUCGAUGGCGCCGGCUGGGCAACAUUCCGAGGGGACCGUCCCCUCGGUAAUGGCGAAUGGGACCCA [C7U C26A],0.91
3,GGCCGGCAUGGUCCCAGCCUCCUCGCUGGCGCCGGCUGGGCAACAUUCCGAGGGGACCGUCCCCUAGGUACUGGCGAAUGGGACCCA [C66A A71C],0.866
4,GGCCGGCAUGGUCCCAGCCUCGUCGCUGGCGCCGGCUGGGCAACAUUCCGAGGGGACCGUCCCCUCGGUAAUGACGAAUGGGACCCA [C22G G74A],0.0241
5,GGCCGGCAUGGUCCCAGCCUCCUCGCUGGCGCCGGCUGGGCAACAUUCCGAGGGGACCGUCCCCUCGGUCAAGGCGAAUGGGACCCA [A70C U72A],0.653
6,GGCCGGCAUGGUCCCAGCCUCCUCGCUGGCGCCGGCUGGGCAACAUUCCGAGGGGACCGUCCCCUCGGUAAAUGCGAAUGGGACCCA [U72A G73U],0.612
7,GGCCGGCAUGGUCCCAGGAUCCUCGCUGGCGCCGGCUGGGCAACAUUCCGAGGGGACCGUCCCCUCGGUAAUGGCGAAUGGGACCCA [C18G C19A],0.119
8,GGCCGGCAUGGUCCCAGCCUCCUCGCUGGCGCCGGCUGGGCAUCAUUCCGUGGGGACCGUCCCCUCGGUAAUGGCGAAUGGGACCCA [A43U A51U],0.332
9,GGCCGGCAUGGUCCCAGCCUCCUCGCUAGCGCCGGCUGGGCAACAUUCCGAGGGGACCUUCCCCUCGGUAAUGGCGAAUGGGACCCA [G28A G59U],0.117
10,GGCCGGCAUGGUCCCAGCCUCCUCGCUGGCGCCGGCUGGGCAACAUUCCGAGGGGACCGUCCCCUCGGUAAUGUCGAAUAGGACCCA [G74U G80A],0.0845
11,GGCCGGCAUGGUCCCAGCCUUCUCGCUGGCGCCGACUGGGCAACAUUCCGAGGGGACCGUCCCCUCGGUAAUGGCGAAUGGGACCCA [C21U G35A],0.108
12,GGCCGGCAUGGUCCUAGCCUCCUCGCUGGCGCCGGCUGGGCAACAUUCCGAGGGGACCAUCCCCUCGGUAAUGGCGAAUGGGACCCA [C15U G59A],0.851
13,GGCCGGCAGGGUCCCAGCCUCCUCGCUGGCGCCGGCUGGGCAACAUUCCGAGGGGACCGUCCCCUCGGCAAUGGCGAAUGGGACCCA [U9G U69C],1.25
14,GGCCGCCAUGGUCCCAGCCUCCUCGCUGCCGCCGGCUGGGCAACAUUCCGAGGGGACCGUCCCCUCGGUAAUGGCGAAUGGGACCCA [G6C G29C],0.161
15,GGCCGGCAUGGUCCCAGCCUCCUCGCUGGCGCCGGCUGGGCAACAUUCCGAGGGGACCGUCCCCUCGGUAAGGGCGAAUAGGACCCA [U72G G80A],0.185
16,GGCCGGCAUGGUCGCAGCUUCCUCGCUGGCGCCGGCUGGGCAACAUUCCGAGGGGACCGUCCCCUCGGUAAUGGCGAAUGGGACCCA [C14G C19U],0.0852
17,GGCCGGCAUGGUCCCAGCCUCCUCGCUGGCGCCGCCUGGGCAACAUUUCGAGGGGACCGUCCCCUCGGUAAUGGCGAAUGGGACCCA [G35C C48U],0.271
18,GGCCGGCAUGGUCCCAGCCUCCUCGCUGGCGCGGGCUGGGCAACAUUCCGAGAGGACCGUCCCCUCGGUAAUGGCGAAUGGGACCCA [C33G G53A],0.0449
19,GGCCAGCAUGGUCCCAGCCUCCUCGCUGGCGCCGGCUGGGCAACAUUCCGAGGGGACCGUCCCCUCGGUAAUGGCGAAUGGGACCCU [G5A A87U],0.218
20,GGCCGGCAUGGUCCCAGCCUCCUCGCUGGCGCCGGCUGGGCAACAUUCCGAGGGAACCGUCCACUCGGUAAUGGCGAAUGGGACCCA [G55A C63A],1.21
21,GGCCGGCAUGGUUCCAGCCUCCUCGCUGGCACCGGCUGGGCAACAUUCCGAGGGGACCGUCCCCUCGGUAAUGGCGAAUGGGACCCA [C13U G31A],0.131
22,GGGCGGCAUGGACCCAGCCUCCUCGCUGGCGCCGGCUGGGCAACAUUCCGAGGGGACCGUCCCCUCGGUAAUGGCGAAUGGGACCCA [C3G U12A],0.0462

row,Variant,self-cleavage
1,GGCCGGCAUGGUCCCAGCCUCCUCGCUGGCGCCGGCUGGGCAACAUUUCGAGGGGACCGUCCCCUCGGUAAUGGGGAAUGGGACCCA [C48U C75G],0.0852
2,GGCCGGCAUGGUCCCAGCCUCCUCGCUUGCGCCCGCUGGGCAACAUUCCGAGGGGACCGUCCCCUCGGUAAUGGCGAAUGGGACCCA [G28U G34C],0.101
3,GGCCGGCAUGGUCCCAGCCUCCUCGCUGGCGGCGGCUGGGCAACCUUCCGAGGGGACCGUCCCCUCGGUAAUGGCGAAUGGGACCCA [C32G A45C],0.0707
4,GGCCGGCAUGGUCCCAGCCCCCUCGCUGGCGCCGGCUGGGCAACAUUCCGAGGGGACCGUCUCCUCGGUAAUGGCGAAUGGGACCCA [U20C C62U],0.0875
5,GGCCAGCAUGGUCCCAGCCUCCUCGCUGGCGCCGGCUGGGCAACAUUCCGAGGGGACCGUCCCCUCGGUCAUGGCGAAUGGGACCCA [G5A A70C],0.166
6,GGCCGGCAUGGUCCCAGCCUCCUCGCUGGCGCCGGCUGGGCAACAUUCCGAGGGGACCGUCCCCCCGGUAAUGGCGAAUGGGAACCA [U65C C84A],0.773
7,GGCCGGCAUGGUCCCAGCCUUCUCGCUGGCGCCGGCUGGGCAACAUUCCGAGGGGACCGUCCCCUCGGUAAUGGCGAAGGGGACCCA [C21U U79G],0.0426
8,GGACGGCAUGGUCCCAGCCUCCUCGCUGGCGCCGGCUGGGCAACAUUCAGAGGGGACCGUCCCCUCGGUAAUGGCGAAUGGGACCCA [C3A C49A],0.554
9,GGCCGGCAUGGUCCCAGCCUCGUCGCUGGUGCCGGCUGGGCAACAUUCCGAGGGGACCGUCCCCUCGGUAAUGGCGAAUGGGACCCA [C22G C30U],0.0723
10,GGCCGGCAUGGUCCCAGCCUCCUCGCUCGCGCCGGCUGGGCAACAUUCCGAGGGGACCGUCCCCUCGGUGAUGGCGAAUGGGACCCA [G28C A70G],0
11,GGCCGGCAUGGUCCCAGCCUCCUCGCUGGCCCCGGCUGGGUAACAUUCCGAGGGGACCGUCCCCUCGGUAAUGGCGAAUGGGACCCA [G31C C41U],0.138
12,GGCCGGCAUGGUCCCAGCCUCCUCGCUGGCGCCGGCUGGGCAACAUUCCGAGGGGACCGUCCCCUAGCUAAUGGCGAAUGGGACCCA [C66A G68C],0.453
13,GGCCGGCAUGGUCCCAGCCUCCUCGCUGGCGCCGGCUGGGCAACAUUCCAAGGGGACCGUCCCCUCGGUAAUGGCGAAUGGAACCCA [G50A G82A],0.614
14,GGCCGGCAUGGUCCCAGCCUCCUCGCUGGCGCCGGCUGGGCAACAUUCCGAGGGGACCGUCCCCUAGGAAAUGGCGAAUGGGACCCA [C66A U69A],1.16
15,GGCCGGCAUGGUCCCAGCCUCCUCGCUGGCGCCGGCUGGGCAACAUUCCGUGGGGACCGUCCCCUCGGUAAUGGCGAAUGGGUCCCA [A51U A83U],0.712
16,GGCAGGCAUUGUCCCAGCCUCCUCGCUGGCGCCGGCUGGGCAACAUUCCGAGGGGACCGUCCCCUCGGUAAUGGCGAAUGGGACCCA [C4A G10U],0.0733
17,GGCCGGCAUCGUCCCAGCCUCCUCGCUGGCUCCGGCUGGGCAACAUUCCGAGGGGACCGUCCCCUCGGUAAUGGCGAAUGGGACCCA [G10C G31U],0.219
18,GGCCGGCAUGGUCCCAGCCUCCUCGCUGGCGCCGGCUGCGCAACAUUCCGAGGGGACCGUCCCCUCGGUAAUGGCGAAUGGGACCAA [G39C C86A],0.261
19,GGCCGGCAUGGUCCCAGCCUCCUCGCUUGCGCCGGCUGGGCAACAUUCCGAGGGGACCGUCCCCUCGGUAAAGGCGAAUGGGACCCA [G28U U72A],0
20,GGCCGGCAUGGUCCCAGCCUCCUCGCUGGCGCCGGCUGCGCAACAUUCCGAUGGGACCGUCCCCUCGGUAAUGGCGAAUGGGACCCA [G39C G52U],0.253
21,GGCCGACAUGGUCCCAGCCUCCUCGCUGACGCCGGCUGGGCAACAUUCCGAGGGGACCGUCCCCUCGGUAAUGGCGAAUGGGACCCA [G6A G29A],0.0959
22,GGCCGGCAUGGUCCCAGCCUCGUCGCUGGCGCCGGCUGGGCAACAUUCCGAGGGGAGCGUCCCCUCGGUAAUGGCGAAUGGGACCCA [C22G C57G],0.219

row,Variant,self-cleavage
1,GGCUGGCAUGGUCCCAGCCUCCUCGCUGGCGCCGUCUGGGCAACAUUCCGAGGGGACCGUCCCCUCGGUAAUGGCGAAUGGGACCCA [C4U G35U],0.162
2,GGCCGGCAUGGUCCCAGCCUCCUCGCUGGCGCCGGCUGGGCAACAUCCCGAGGGGACCGUCCCCUCGGUAAUGGCGAAUGGGACCAA [U47C C86A],0.806
3,GGCCGGCAUGGUCCCAGCCUCCUCGCUGGCGCCCGCUGGGCAACAUUCCGAGUGGACCGUCCCCUCGGUAAUGGCGAAUGGGACCCA [G34C G53U],0.163
4,GGCCGGCAUGGUCCCAGCCUCCUCGCUGGCGCCGGCUGGGCAACAUUCCGAGGGGACCGGCCCCUCGGUAAUGGCGAAUGGGAUCCA [U60G C84U],0.798
5,GGCCGGCAUCGUCCCAGCCUCCUCGCUGGCGCCGGCUGGGCAACAUUCCUAGGGGACCGUCCCCUCGGUAAUGGCGAAUGGGACCCA [G10C G50U],0.956
6,GGCCGGCAUGGUCCCAGCCUCCUCGCUGGCGCCGGCGGGCCAACAUUCCGAGGGGACCGUCCCCUCGGUAAUGGCGAAUGGGACCCA [U37G G40C],0.0519
7,GGCCGGCAUGGUCCCAGCCUCCUCGCUGGCGCCGGCUGGGUAACAUUCCGAGGGGACCGUCCCCUCGGUAACGGCGAAUGGGACCCA [C41U U72C],0.375
8,GGCCGGCAUGGUCCCAGCCUCCUCGCUGGCGCCGGCUGGGCAACAUUCCGAGGGGACCGUCCCCUCGUUAUUGGCGAAUGGGACCCA [G68U A71U],1.01
9,GGCCGGCAUGGUCCCAGCCUCCUCGCUGGCGCCGGCUGGGCAACAUUCCGAGGGGACCGUCCCCUCGGUAAUGGCGAAUGGGAUCCC [C84U A87C],0.749
10,GGCCGGCAUGGUCCCAUCCUCCUCGCUGGCGCCGGCUGGGCAACAUUCCGAGGGGACCGUCCCCUCCGUAAUGGCGAAUGGGACCCA [G17U G67C],0.628
11,GGCCGGCAUGGUCCCAGCCUCCUCGCUGGCGCCGGCUGGGCAACAUUCCGAGGGGACCGUCCCCUCGGUAAUGGCAAAUGGGACCGA [G76A C86G],1.08
12,GGCCGGCAUGGUCCCAGCCUCCUCGCUGGCGCCGGAUGGGCAACAUUCCGAGCGGACCGUCCCCUCGGUAAUGGCGAAUGGGACCCA [C36A G53C],0.0277
13,GGCCGGCAUGGUCCCAGCCUCCUCGCUGGGGCCGGCUGGGCAACAUUCCGAGGGGACCGUCCCAUCGGUAAUGGCGAAUGGGACCCA [C30G C64A],0.0361
14,GGCCGGCAUGGUCCCACCCUGCUCGCUGGCGCCGGCUGGGCAACAUUCCGAGGGGACCGUCCCCUCGGUAAUGGCGAAUGGGACCCA [G17C C21G],0.145
15,GGCCGGCAUGGUCCCAGCCUCCGCGCUGGCGCCGGCUGGGCAACAUUCCGCGGGGACCGUCCCCUCGGUAAUGGCGAAUGGGACCCA [U23G A51C],0.63
16,GGCCGGCAUGGUCCCAGCCUCCUCGCUGACGCCGGCUGGGCAACAUUCCGAGGGGACCGUCCCCUCGAUAAUGGCGAAUGGGACCCA [G29A G68A],0.107
17,GGCCGGCAUGGUCCCACCCUCCUCGCUGGCGCCGGCUGGGCAACAUUCCGAGGGGACCGUCCCCUCGGCAAUGGCGAAUGGGACCCA [G17C U69C],0.269
18,GUCCGGCAUGGUCCCAGCCUCCUCGCUGGCGCCGGCUGGGCAACAUUCCGAGGGGACCGUCCCCUCGGUAAUGGCGAAUGGGACUCA [G2U C85U],0
19,GGCUGGCAUGGUCCCAGCCUCCUCGCUGGCGCCCGCUGGGCAACAUUCCGAGGGGACCGUCCCCUCGGUAAUGGCGAAUGGGACCCA [C4U G34C],0.151
20,GGCCGGCAUGGUCCCAGCCUCCUCGCUGGCGCCGGCUGGGCAACAUUCCGAGGGGACCGUCCCCUUGGUAAUGGCGAAUGGGACCCU [C66U A87U],1.23
